According to article PMC6108177 (Nature structural & molecular biology, 2017):

Columns and labels:
[1] = biological target: Human TRF1 TRFH domain (residues 65–267) (human) (UniProt P54274); test: ITC
[2] = biological target: the molecule itself; test: crystal structure

Molecule | Kd [1] | stoichiometry N [2]
Human TERB1 TBM (TRF1-binding motif, residues 642–656) (from UniProt Q8NA31-1 642-656) (peptide) | 5.6 µM | –
Human TRF1 TRFH domain (residues 65–267) (domain or fragment, UniProt P54274 65-267, looked up) GLVAEAEAVAAGWMLDFLCLSLCRAFRDGRSEDFRRTRNSAEAIIHGLSSLTACQLRTIYICQFLTRIAAGKTLDAQFENDERITPLESALMIWGSIEKEHDKLHEEIQNLIKIQAIAVCMENGNFKEAEEVFERIFGDPNSHMPFKSKLLMIISQKDTFHSFFQHFSYNHMMEKIKSYVNYVLSEKSSTFLMKAAAKVVESK | – | 2
